{"source": "patent US20100130423", "key": {"[1]": {"molecular_target": "adaptor protein LnK, wild type (UniProt Q9UQQ2)"}, "[2]": {"molecular_target": "LnK PH domain (from V5-LnK mutant constructs) (UniProt Q9UQQ2)"}}}
{"substance": "JAK2 V617F", "values": [{"measurement": "tyrosine phosphorylation of LnK (anti-phosphotyrosine immunoprecipitation, LnK Western blot)", "setting": "[1]", "value": "the phosphorylation levels of LnK itself are higher in 293T cells expressing JAK2 V617F compared with cells expressing JAK2 WT"}, {"measurement": "JAK2 V671F autophosphorylation levels", "setting": "[2]", "value": "The LnK PH domain associates with and inhibits JAK2 V671F"}]}
